Measured values as given in patent US12077763B2, “RNA-based control of powdery mildew” (Greenlight Biosciences, Inc., priority 2021, dated 2024).

B1: GS1800: dsRNA trigger SEQ ID NO 137; gene target Protein BOB1 (nucleic acid)
DNA: ATCAGTCTGACTGCTATACTCACTACCAGAGTCACTGATTACCTGTCTGTCTCTATCGACAATTCCATGAGGTGATTTTAAATGAGTGATATGTTCGTCAATGACACTTAGAGTTTCATTCATTACAGGGCTATCTTGACGATGATTCTTAATATTAACAGACGAGATACTTTTTGATTGAATCGTTGTTTCAGGACTAGTAATCGTTAAGTTTGACGGAGCCTTGATACCCCGGGGCCCAAGAGTTGGTTGTATTTGAGGAGTATCTAACATTTTGAGAGGTTCTGATGGCAAGGAGACCGTATTTTCACCAGAAAAAGGAGTTTGTGGAGAAACTGTGTTGCTAGTTTTCCTTATTTTGGAATGGGAATTTTGAATGGACGATGATGCTGGCGAGCATATTAAAGATCCTCGGGGAGCTATACGTGTGTATACTTCTGGGAAGAGGCCACTCTTTCCATTTAGCAGATGACGGCCTAAAAACCATCCGTCCCCAAAATCATCATCACGTTCTATCAACTCAACGCGATCTCCTTTGGACAAGCTCAACTCATCTGAGCTACGAGCTGAGAAATCATGAACTACAAGCAAAATATGA
B2: GS3454 (nucleic acid)
sense: GCUCUUCUCAAUGGAUCCCAAGAUGAUCUAAAUAGAAUCGCAGAACACUUUAAGUUGACAAAGUUGAAAGAGCUCUAUGAAAAACAAUGUCAAGUUUUAAAAAGAUUUGAUAGACCCAAUCCUUCUGUUCCAAUAGCCAUAGCACAUUUAUAUCCUCCAGGCCCUAUAAAUCCACAUUACUCAGCAGCUAUGGCACGAGAAGCUGAGAAAAAAAAUUCAAACCCUCUUAAAAACACUGCAACACAAACUAGUUCUAAGGAGGUUGGCUUAAGUACCAUUAGUAAUAAAAAUUCUCUUAUAAAUUCGAGGCGCUCAAAAGGACAAGAUAUGCCAACUCAGGCUAGCAGUUUGGCAGAAAAAUUUAGUCAAAGUAUGAUGGAUCAGGAGCUUGAUGAUGA
antisense: UCAUCAUCAAGCUCCUGAUCCAUCAUACUUUGACUAAAUUUUUCUGCCAAACUGCUAGCCUGAGUUGGCAUAUCUUGUCCUUUUGAGCGCCUCGAAUUUAUAAGAGAAUUUUUAUUACUAAUGGUACUUAAGCCAACCUCCUUAGAACUAGUUUGUGUUGCAGUGUUUUUAAGAGGGUUUGAAUUUUUUUUCUCAGCUUCUCGUGCCAUAGCUGCUGAGUAAUGUGGAUUUAUAGGGCCUGGAGGAUAUAAAUGUGCUAUGGCUAUUGGAACAGAAGGAUUGGGUCUAUCAAAUCUUUUUAAAACUUGACAUUGUUUUUCAUAGAGCUCUUUCAACUUUGUCAACUUAAAGUGUUCUGCGAUUCUAUUUAGAUCAUCUUGGGAUCCAUUGAGAAGAGC
B3: GS3457 (nucleic acid)
sense: UCAGGCAAGGGUGGAGUGGGUAAAAGUACAUUUACAACACUGCUUGCACAUGCACUUGCAAAAGACCCGGAAAUUGUGGUUGGUGUCAUGGAUACAGAUAUUUGCGGGCCAAGUAUUCCAAAAAUGAUGGGAGUUGAGGAAGAGAUUAUUCACGUCAGUAAUACAGGAUGGAGUCCAGUUUGGGUACUUGAAAAUCUAGCAGUAAUGAGCGUGCAAUUUAUGCUUCCCAACCGAGAUGAUGCAGUUAUUUGGAGAGGACCAAAGAAAAACGGCCUGAUAAAGCAAUUUUUAAAAGAUGUAGAAUGGGGCGAAAUGGAAUAUUUAUUAGUAGACACUCCACCAGGAACAAGUGAUGAACAUUUGAGUGUCAACACUUUUUUGAAAGAGAGUGGAA
antisense: UUCCACUCUCUUUCAAAAAAGUGUUGACACUCAAAUGUUCAUCACUUGUUCCUGGUGGAGUGUCUACUAAUAAAUAUUCCAUUUCGCCCCAUUCUACAUCUUUUAAAAAUUGCUUUAUCAGGCCGUUUUUCUUUGGUCCUCUCCAAAUAACUGCAUCAUCUCGGUUGGGAAGCAUAAAUUGCACGCUCAUUACUGCUAGAUUUUCAAGUACCCAAACUGGACUCCAUCCUGUAUUACUGACGUGAAUAAUCUCUUCCUCAACUCCCAUCAUUUUUGGAAUACUUGGCCCGCAAAUAUCUGUAUCCAUGACACCAACCACAAUUUCCGGGUCUUUUGCAAGUGCAUGUGCAAGCAGUGUUGUAAAUGUACUUUUACCCACUCCACCCUUGCCUGA

Test system: E. necator
Assay: Leaf disc assay, dry inoculum (settling tower), decrease in disease severity / hyphal growth (Example 2)
Details: decrease in disease severity (hyphal growth) relative to untreated control, value ± SE; for % decrease =/− SE TP1: time point 1 (untreated control hyphal growth ≥50%); for % decrease =/− SE TP2: time point 2

| Molecule | % decrease =/− SE TP1 [%] | % decrease =/− SE TP2 [%] |
| --- | --- | --- |
| B1 | 22 ± 6 | 25 ± 8 |
| B2 | 4 ± 4 | 0 ± 9 |
| B3 | 13 ± 4 |  |
